Assay results: paper PMC5937170

Assays:
Settings in all cases: EMSA: 15 ul, 70 C for 15 min, buffer per Ochs et al. 2012 (not given), 8% native PAGE; footprint: same binding conditions, DNase I at 37 C
[1] = target: T1, TFB-RF1;TBP;TFB (Pyrococcus furiosus;Pyrococcus furiosus?;Pyrococcus furiosus?) (UniProt Q8U1W6+P62000+P61998); test: EMSA
T1 sequence 1: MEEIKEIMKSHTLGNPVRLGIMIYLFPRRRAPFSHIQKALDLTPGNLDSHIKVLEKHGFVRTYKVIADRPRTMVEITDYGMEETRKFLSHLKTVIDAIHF
T1 sequence 2: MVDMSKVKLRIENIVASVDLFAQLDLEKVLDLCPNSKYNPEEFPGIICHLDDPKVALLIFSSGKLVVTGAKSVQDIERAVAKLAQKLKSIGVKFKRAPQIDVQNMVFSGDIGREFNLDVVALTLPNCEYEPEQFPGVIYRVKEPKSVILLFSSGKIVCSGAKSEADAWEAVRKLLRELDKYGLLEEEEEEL
T1 sequence 3: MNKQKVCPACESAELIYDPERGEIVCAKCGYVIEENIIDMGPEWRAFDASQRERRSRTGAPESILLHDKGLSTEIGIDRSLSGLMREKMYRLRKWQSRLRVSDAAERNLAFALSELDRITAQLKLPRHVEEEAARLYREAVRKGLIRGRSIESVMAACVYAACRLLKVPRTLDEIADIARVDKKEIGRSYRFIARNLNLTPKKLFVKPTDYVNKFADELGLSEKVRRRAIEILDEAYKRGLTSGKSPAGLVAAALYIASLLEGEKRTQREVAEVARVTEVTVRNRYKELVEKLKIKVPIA

[2] = target: T2, TFB-RF1 (Pyrococcus furiosus) (UniProt Q8U1W6); test: EMSA
T2 sequence: T1 sequence 1

[3] = target: T2, TFB-RF1 (Pyrococcus furiosus); test: DNase I footprinting

Sequence | binding [1] | binding [2] | binding [3]
ACTATTTTGGAAATTAGTTAAAGCTTCTAAAAAAGCTTGTTGTTTTTCTGGGATTCAGACGGATTATTTACAAAAAAGGAAAGGAATATTGGTAGCTATA (double strand) [pf1011/1012 promoter region (EMSA)] | binds | binds | –
ACTATTTTGGAAATTAGTTAAAGCTTCTAAAAAAGCTTGTTGTTTTTCTGGGATTCAGACGGATTATTTACAAAAAAGGAAAGGAATATTGGTAGCTATA (double strand) [pf1011/1012 promoter region (footprint)] | – | – | binds
